Results published in the supplement of paper PMC6757056.
± gives the standard deviation of the averaged measurements.

B1: library; a variant is named by its letters at N, in order (parent)
chain: GCUGUCACCGGUGUAUUACCCUAGUGGUCGACCGGUCUGAUGAGUCUNNNNNNAGACGAAACAGC

Legend:
[1] = variants of: B1; test: normalized RNA/DNA level with ligand (relative to sTRSVctl = 100) (log10 (% of sTRSVctl)); ligand: hypoxanthine (xanthine aptamer); higher = less ribozyme self-cleavage, higher mRNA level; settings: ligand concentration (+) RNA-Seq: 5 mM, HEK293T, reporter: mCherry (pCS4076), ligand present: yes
Procedure, shortened: (§1)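 HEK293T cells were transfected with library plasmids carrying ribozyme switches linked to an mCherry reporter, or an eGFP reporter in some ligand experiments, at 4 µg per well of a 6-well plate, with any ligand added 1 h beforehand. After 72 h, total RNA was extracted with EDTA, reverse-transcribed, amplified, barcoded and sequenced. RNA level was defined as RNA reads over DNA reads, normalized to a spiked-in non-cleaving sequence or to the top-ranked sequences. That value was multiplied by 100 and converted to log10, the top set was 25 sequences, and only sequences with ≥100 DNA reads were retained.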

[2] = variants of: B1; test: normalized RNA/DNA level without ligand (relative to sTRSVctl = 100) (log10 (% of sTRSVctl)); ligand: hypoxanthine (xanthine aptamer); higher = less ribozyme self-cleavage, higher mRNA level; settings: HEK293T, reporter: mCherry (pCS4076), ligand present: no
Procedure, shortened: as §1

Variant | normalized RNA/DNA level with ligand (log10) [1] | normalized RNA/DNA level without ligand (log10) [2]
GCUGUCACCGGUGUAUUACCCUAGUGGUCGACCGGUCUGAUGAGUCUUAUGAGAGACGAAACAGC [UAUGAG] | 1.86 ± 0.046 | 1.54 ± 0.046
GCUGUCACCGGUGUAUUACCCUAGUGGUCGACCGGUCUGAUGAGUCUUAUGAUAGACGAAACAGC [UAUGAU] | 1.91 ± 0.022 | 1.7488 ± 0.0016
GCUGUCACCGGUGUAUUACCCUAGUGGUCGACCGGUCUGAUGAGUCUUAUGAAAGACGAAACAGC [UAUGAA] | 1.915 ± 0.013 | 1.73 ± 0.023
GCUGUCACCGGUGUAUUACCCUAGUGGUCGACCGGUCUGAUGAGUCUUAUGGAAGACGAAACAGC [UAUGGA] | 1.906 ± 0.012 | 1.65 ± 0.02
GCUGUCACCGGUGUAUUACCCUAGUGGUCGACCGGUCUGAUGAGUCUGAUCUUAGACGAAACAGC [GAUCUU] | 1.96 ± 0.028 | 1.943 ± 0.0084
GCUGUCACCGGUGUAUUACCCUAGUGGUCGACCGGUCUGAUGAGUCUGAUGCAAGACGAAACAGC [GAUGCA] | 1.97 ± 0.036 | 1.83 ± 0.02
GCUGUCACCGGUGUAUUACCCUAGUGGUCGACCGGUCUGAUGAGUCUAAUGGCAGACGAAACAGC [AAUGGC] | 1.929 ± 0.0094 | 1.79 ± 0.02
GCUGUCACCGGUGUAUUACCCUAGUGGUCGACCGGUCUGAUGAGUCUCAUCUUAGACGAAACAGC [CAUCUU] | 2 ± 0.027 | 1.93 ± 0.047
GCUGUCACCGGUGUAUUACCCUAGUGGUCGACCGGUCUGAUGAGUCUAAUGCCAGACGAAACAGC [AAUGCC] | 1.942 ± 0.015 | 1.83 ± 0.039
GCUGUCACCGGUGUAUUACCCUAGUGGUCGACCGGUCUGAUGAGUCUAAUGCUAGACGAAACAGC [AAUGCU] | 1.92 ± 0.071 | 1.864 ± 0.011
GCUGUCACCGGUGUAUUACCCUAGUGGUCGACCGGUCUGAUGAGUCUCAUGCCAGACGAAACAGC [CAUGCC] | 1.92 ± 0.1 | 1.84 ± 0.028
GCUGUCACCGGUGUAUUACCCUAGUGGUCGACCGGUCUGAUGAGUCUCAUGCAAGACGAAACAGC [CAUGCA] | 1.979 ± 0.013 | 1.688 ± 0.016
GCUGUCACCGGUGUAUUACCCUAGUGGUCGACCGGUCUGAUGAGUCUAAUCUUAGACGAAACAGC [AAUCUU] | 1.94 ± 0.029 | 1.914 ± 0.012
GCUGUCACCGGUGUAUUACCCUAGUGGUCGACCGGUCUGAUGAGUCUUAUGCUAGACGAAACAGC [UAUGCU] | 1.92 ± 0.013 | 1.85 ± 0.03
GCUGUCACCGGUGUAUUACCCUAGUGGUCGACCGGUCUGAUGAGUCUUAUGCGAGACGAAACAGC [UAUGCG] | 1.8828 ± 0.0017 | 1.67 ± 0.037
GCUGUCACCGGUGUAUUACCCUAGUGGUCGACCGGUCUGAUGAGUCUUAUGCCAGACGAAACAGC [UAUGCC] | 1.935 ± 0.0058 | 1.87 ± 0.067
GCUGUCACCGGUGUAUUACCCUAGUGGUCGACCGGUCUGAUGAGUCUUAUGCAAGACGAAACAGC [UAUGCA] | 1.88 ± 0.022 | 1.83 ± 0.019
GCUGUCACCGGUGUAUUACCCUAGUGGUCGACCGGUCUGAUGAGUCUUAUCUUAGACGAAACAGC [UAUCUU] | 1.97 ± 0.044 | 1.9 ± 0.043
GCUGUCACCGGUGUAUUACCCUAGUGGUCGACCGGUCUGAUGAGUCUCAUGGAAGACGAAACAGC [CAUGGA] | 1.92 ± 0.05 | 1.7786 ± 0.00037
GCUGUCACCGGUGUAUUACCCUAGUGGUCGACCGGUCUGAUGAGUCUCAUGGCAGACGAAACAGC [CAUGGC] | 1.97 ± 0.044 | 1.87 ± 0.046
GCUGUCACCGGUGUAUUACCCUAGUGGUCGACCGGUCUGAUGAGUCUAAUGAAAGACGAAACAGC [AAUGAA] | 1.872 ± 0.0038 | 1.71 ± 0.018
